Legend:
B7H3 [1] = target: T1, B7H3 (human, UniProt Q5ZPR3 29-466, limits assumed); assay: ELISA or FCM (Example 2)
T1 sequence (looked up): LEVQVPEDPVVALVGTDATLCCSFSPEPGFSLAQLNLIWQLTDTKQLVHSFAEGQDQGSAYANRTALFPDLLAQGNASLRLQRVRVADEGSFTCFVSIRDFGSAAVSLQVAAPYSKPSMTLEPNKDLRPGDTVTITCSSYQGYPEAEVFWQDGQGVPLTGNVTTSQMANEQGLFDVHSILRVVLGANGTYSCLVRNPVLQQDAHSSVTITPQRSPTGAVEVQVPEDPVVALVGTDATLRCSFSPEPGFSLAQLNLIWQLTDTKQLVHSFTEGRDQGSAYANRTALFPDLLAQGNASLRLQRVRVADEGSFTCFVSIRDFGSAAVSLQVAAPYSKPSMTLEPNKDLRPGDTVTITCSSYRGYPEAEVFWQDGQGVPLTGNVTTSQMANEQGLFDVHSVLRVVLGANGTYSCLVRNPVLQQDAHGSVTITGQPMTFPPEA

CD137 = target: T2, CD137 (human, UniProt Q07011 24-186); assay: CD137 binding, FCM or ELISA
T2 construct: In the reporter assay it is whole, on GS-H2-huCD137 cells; also called 4-1BB; huCD137

CD3 = CD3 (human); assay: CD3 binding, as described in Example 2 (ELISA or FCM)
B7H3 [2] = target: T3, B7H3 (UniProt Q5ZPR3 29-466, limits assumed); assay: FCM or ELISA, graded
T3 sequence (looked up): T1 sequence (looked up)

CD40 = CD40 (UniProt P25942 21-193, limits assumed); assay: FCM or ELISA, graded
Sequence of CD40 (P25942 21-193 limits assumed): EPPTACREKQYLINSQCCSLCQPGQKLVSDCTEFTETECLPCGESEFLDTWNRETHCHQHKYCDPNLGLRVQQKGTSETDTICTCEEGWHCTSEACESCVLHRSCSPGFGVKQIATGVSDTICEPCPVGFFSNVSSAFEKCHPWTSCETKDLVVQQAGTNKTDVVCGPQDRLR

Sequence of CD3 (human) (chain, as listed by the source): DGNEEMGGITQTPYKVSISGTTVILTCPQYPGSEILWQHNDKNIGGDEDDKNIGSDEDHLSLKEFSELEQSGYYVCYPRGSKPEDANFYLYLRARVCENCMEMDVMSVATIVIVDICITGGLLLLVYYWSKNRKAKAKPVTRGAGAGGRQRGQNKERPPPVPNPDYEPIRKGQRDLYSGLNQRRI

B1: Ly1963 (other)
chain 1: QVQLVQSGAEVKKPGASVKVSCKASGYTFTSYVMHWVRQKPGQGLEWIGYINPYNEGTESTDKFKGRATMTSDKSTSTVYMELSSLRSEDTAVYYCASIYYGYEGTYFGVWGQGTLVTVSSASTKGPSVFPLAPSSKSTSGGTAALGCLVKDYFPEPVTVSWNSGALTSGVHTFPAVLQSSGLYSLSSVVTVPSSSLGTQTYICNVNHKPSNTKVDKKVEPKSCGGGGSGGGGSGGGGSGGGGSEVQLVESGGGLVQPGGSLRLSCAASGFTFSTYAMNWVRQAPGKGLEWVGRIRSKYNNYATYYADSVKGRFTISRDDSKNSLYLQMNSLKTEDTAVYYCVRHGNFGNSYVSWFAYWGQGTLVTVSSGGGGSDKTHTCPPCPAPEAAGPSVFLFPPKPKDTLMISRTPEVTCVVVDVSHEDPEVKFNWYVDGVEVHNAKTKPREEQYNSTYRVVSVLTVLHQDWLNGKEYKCKVSNKALPAPIEKTISKAKGQPREPQVYTLPPSREEMTKNQVSLWCLVKGFYPSDIAVEWESNGQPENNYKTTPPVLDSDGSFFLYSKLTVDKSRWQQGNVFSCSVMHEALHNHYTQKSLSLSPGGGGGSGGGGSGGGGSGGGGSQVQLVQSGAEVKKPGASVKVSCKASGYTFAGFEMHWVRQAPGQGLEWMGAIDPKTGGTDYNQKFKDRVTMTRDTSISTAYMELSRLRSDDTAVYYCARDLGYFDVWGQGTLVTVSS
chain 2: QVQLVQSGAEVKKPGASVKVSCKASGYTFTSYVMHWVRQKPGQGLEWIGYINPYNEGTESTDKFKGRATMTSDKSTSTVYMELSSLRSEDTAVYYCASIYYGYEGTYFGVWGQGTLVTVSSASTKGPSVFPLAPSSKSTSGGTAALGCLVKDYFPEPVTVSWNSGALTSGVHTFPAVLQSSGLYSLSSVVTVPSSSLGTQTYICNVNHKPSNTKVDKKVEPKSCGGGGSGGGGSGGGGSGGGGSQAVVTQEPSLTVSPGGTVTLTCRSSTGAVTTSNYANWVQQKPGQAPRGLIGGTNKRAPWTPARFSGSLLGGKAALTITGAQAEDEADYYCALWYSNLWVFGGGTKLTVLGGGGSDKTHTCPPCPAPEAAGPSVFLFPPKPKDTLMISRTPEVTCVVVDVSHEDPEVKFNWYVDGVEVHNAKTKPREEQYNSTYRVVSVLTVLHQDWLNGKEYKCKVSNKALPAPIEKTISKAKGQPREPQVYTLPPSREEMTKNQVSLSCAVKGFYPSDIAVEWESNGQPENNYKTTPPVLDSDGSFFLVSKLTVDKSRWQQGNVFSCSVMHEALHNHYTQKSLSLSPGGGGGSGGGGSGGGGSGGGGSDIQMTQSPSSLSASVGDRVTITCRASQDIRSNLNWYQQKPGGAVKLLIYYTSRLHSGVPSRFSGSGSGTDYTLTISSLQPEDFATYFCQQSEKLPRTFGGGTKVEIR
light: EIVLTQSPATLSLSPGERATLSCRASSSVSYMHWYQQKPGQAPRPWIYATSNLASGIPARFSGSRSGTDYTLTISSLEPEDFAVYYCQQWSSNTLTFGGGTKVEIKRTVAAPSVFIFPPSDEQLKSGTASVVCLLNNFYPREAKVQWKVDNALQSGNSQESVTEQDSKDSTYSLSSTLTLSKADYEKHKVYACEVTHQGLSSPVTKSFNRGEC
notes: Tri-specific antibody: B7H3 Fabs, central CD3 Fv, terminal CD137 Fv; Flexible linker is (G4S)4
binding result (B7H3 [1]): binds
binding result (CD137): binds
EC50 (CD3): 0.74 µg/mL

B2: Ly2424 (bispecific antibody, human IgG1, kappa)
heavy 1: not shown
heavy 2: QVQLVQSGAEVKKPGASVKVSCKASGYTFTSYVMHWVRQKPGQGLEWIGYINPYNEGTESTDKFKGRATMTSDKSTSTVYMELSSLRSEDTAVYYCASIYYGYEGTYFGVWGQGTLVTVSSASTKGPSVFPLAPSSKSTSGGTAALGCLVKDYFPEPVTVSWNSGALTSGVHTFPAVLQSSGLYSLSSVVTVPSSSLGTQTYICNVNHKPSNTKVDKKVEPKSCDKTHTCPPCPAPEAAGPSVFLFPPKPKDTLMISRTPEVTCVVVDVSHEDPEVKFNWYVDGVEVHNAKTKPREEQYNSTYRVVSVLTVLHQDWLNGKEYKCKVSNKALPAPIEKTISKAKGQPREPQVYTLPPSREEMTKNQVSLSCAVKGFYPSDIAVEWESNGQPENNYKTTPPVLDSDGSFFLVSKLTVDKSRWQQGNVFSCSVMHEALHNRFTQKSLSLSPGGGGGSGGGGSGGGGSGGGGSDIQMTQSPSSVSASVGDRVTITCRASQGIYSWLAWYQQKPGKAPNLLIYTASTLQSGVPSRFSGSGSGTDFTLTISSLQPEDFATYYCQQANIFPLTFGGGTKVEIK
light: B1 light
notes: B7H3 Fabs x terminal CD40 Fv (TM383)
binding result (B7H3 [2]): binds
binding result (CD40): binds

B3: Ly2279 (bispecific antibody)
heavy 1: not shown
heavy 2: QVQLVQSGAEVKKPGASVKVSCKASGYTFTSYVMHWVRQKPGQGLEWIGYINPYNEGTESTDKFKGRATMTSDKSTSTVYMELSSLRSEDTAVYYCASIYYGYEGTYFGVWGQGTLVTVSSASTKGPSVFPLAPSSKSTSGGTAALGCLVKDYFPEPVTVSWNSGALTSGVHTFPAVLQSSGLYSLSSVVTVPSSSLGTQTYICNVNHKPSNTKVDKKVEPKSCGGGGSGGGGSGGGGSGGGGSDIQMTQSPSSVSASVGDRVTITCRASQGIYSWLAWYQQKPGKAPNLLIYTASTLQSGVPSRFSGSGSGTDFTLTISSLQPEDFATYYCQQANIFPLTFGGGTKVEIKGGGGSDKTHTCPPCPAPEAAGPSVFLFPPKPKDTLMISRTPEVTCVVVDVSHEDPEVKFNWYVDGVEVHNAKTKPREEQYNSTYRVVSVLTVLHQDWLNGKEYKCKVSNKALPAPIEKTISKAKGQPREPQVYTLPPSREEMTKNQVSLSCAVKGFYPSDIAVEWESNGQPENNYKTTPPVLDSDGSFFLVSKLTVDKSRWQQGNVFSCSVMHEALHNRFTQKSLSLSPG
light: B1 light
notes: B7H3 Fabs x central CD40 Fv (TM383)
binding result (B7H3 [2]): binds

B4: TM559 (antibody, V domains shown)
VH: EVQLVESGGGLVQPGGSLRLSCAASGFTFTNYGLHWVRQAPGKGLEWVSSISPSGGVTYYRDSVKGRFTISRDNSKNTLYLQMNSLRAEDTAVYYCAKPFLGWGGANWIAHWGQGTLVTVSS
VL: DIQMTQSPSSLSASVGDRVTITCLASEDISNDLAWYQQKPGKAPKLLIYFVDRLLDGVPSRFSGSGSGTDFTLTISSLQPEDFATYYCQQSYKYPPTFGQGTKLEIK
notes: Parent mAb; also called Anti-CD40 TM559
binding result (CD40): binds

B5: Ly1967 (other)
chain 1: QVQLQQSGAELVRPGSSVKISCKASGYAFSSYWMNWVKQRPGQGLEWIGQIWPGDGDTNYNGKFKGKATLTADESSSTAYMQLSSLASEDSAVYFCARRETTTVGRYYYAMDYWGQGTTVTVSSASTKGPSVFPLAPSSKSTSGGTAALGCLVKDYFPEPVTVSWNSGALTSGVHTFPAVLQSSGLYSLSSVVTVPSSSLGTQTYICNVNHKPSNTKVDKKVEPKSCGGGGSGGGGSGGGGSGGGGSEVQLVESGGGLVQPGGSLRLSCAASGFTFSTYAMNWVRQAPGKGLEWVGRIRSKYNNYATYYADSVKGRFTISRDDSKNSLYLQMNSLKTEDTAVYYCVRHGNFGNSYVSWFAYWGQGTLVTVSSGGGGSDKTHTCPPCPAPEAAGPSVFLFPPKPKDTLMISRTPEVTCVVVDVSHEDPEVKFNWYVDGVEVHNAKTKPREEQYNSTYRVVSVLTVLHQDWLNGKEYKCKVSNKALPAPIEKTISKAKGQPREPQVYTLPPSREEMTKNQVSLWCLVKGFYPSDIAVEWESNGQPENNYKTTPPVLDSDGSFFLYSKLTVDKSRWQQGNVFSCSVMHEALHNHYTQKSLSLSPGGGGGSGGGGSGGGGSGGGGSQVQLVQSGAEVKKPGASVKVSCKASGYTFAGFEMHWVRQAPGQGLEWMGAIDPKTGGTDYNQKFKDRVTMTRDTSISTAYMELSRLRSDDTAVYYCARDLGYFDVWGQGTLVTVSS
chain 2: QVQLQQSGAELVRPGSSVKISCKASGYAFSSYWMNWVKQRPGQGLEWIGQIWPGDGDTNYNGKFKGKATLTADESSSTAYMQLSSLASEDSAVYFCARRETTTVGRYYYAMDYWGQGTTVTVSSASTKGPSVFPLAPSSKSTSGGTAALGCLVKDYFPEPVTVSWNSGALTSGVHTFPAVLQSSGLYSLSSVVTVPSSSLGTQTYICNVNHKPSNTKVDKKVEPKSCGGGGSGGGGSGGGGSGGGGSQAVVTQEPSLTVSPGGTVTLTCRSSTGAVTTSNYANWVQQKPGQAPRGLIGGTNKRAPWTPARFSGSLLGGKAALTITGAQAEDEADYYCALWYSNLWVFGGGTKLTVLGGGGSDKTHTCPPCPAPEAAGPSVFLFPPKPKDTLMISRTPEVTCVVVDVSHEDPEVKFNWYVDGVEVHNAKTKPREEQYNSTYRVVSVLTVLHQDWLNGKEYKCKVSNKALPAPIEKTISKAKGQPREPQVYTLPPSREEMTKNQVSLSCAVKGFYPSDIAVEWESNGQPENNYKTTPPVLDSDGSFFLVSKLTVDKSRWQQGNVFSCSVMHEALHNHYTQKSLSLSPGGGGGSGGGGSGGGGSGGGGSDIQMTQSPSSLSASVGDRVTITCRASQDIRSNLNWYQQKPGGAVKLLIYYTSRLHSGVPSRFSGSGSGTDYTLTISSLQPEDFATYFCQQSEKLPRTFGGGTKVEIR
light: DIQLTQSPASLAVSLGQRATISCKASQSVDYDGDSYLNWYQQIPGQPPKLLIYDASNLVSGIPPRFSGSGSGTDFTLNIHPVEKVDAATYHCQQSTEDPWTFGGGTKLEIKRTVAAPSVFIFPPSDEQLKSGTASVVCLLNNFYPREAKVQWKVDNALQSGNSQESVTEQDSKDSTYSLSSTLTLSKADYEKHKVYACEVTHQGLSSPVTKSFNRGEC
notes: Tri-specific antibody: CD19 Fabs, central CD3 Fv, terminal CD137 Fv
binding result (CD137): binds
EC50 (CD3): 1.56 µg/mL

Reference: patent US20250388669A1 (published 2025)
